# According to a protein production outcome set (Wang et al. 2014):
# Assay: label from the status in PepcDB records
row,Sequence,protein production
1,MPLCLRNAQQDDTQRLSQIARQTFALACPPDTPATEIEAFIQENLLPEHFSALLEAPGKQLRVLLDDNRVIGYSLVNLHPQDLGVAGADGIAELTRCYLDAAHHGSGAAQFLLAQTLAQQPGPLRLTVNEHNARAIRFYQRNGFVRVGETLFPCGADLHRDWVMLRR,failed
2,MPLGHLFDKSYDEMHCNQKNWEMAERKLMEDAVQSALSKQNLKKEDIDIFLAGDLLNQNVTANYVARHLKIPFLCLFGACSTSMESIAISSALIDGGFAKRALAATSSHNATAERQFRYPTEYGGQKPGTATSTVTGSGAVVLSQQPGGIKITSATVGRVIDLGITDSQDMGSAMAPAAADTIKQHLEDLGRTPDDYDLILTGDLSGVGSPILKDLLKEEGINVGTKHNDCGLMIYTPDQQVFAGGSGCACSAVVTFAHIFKEIEAGRLNRVLVVATGALLSPTIIQQKESIPCIAHGVVFERAERGNALEHHHHHH,not failed
3,MPLHNLTRFPRLEFIGAPTPLEYLPRFSDYLGREIFIKRDDVTPMAMGGNKLRKLEFLAADALREGADTLITAGAIQSNHVRQTAAVAAKLGLHCVALLENPIGTTAENYLTNGNRLLLDLFNTQIEMCDALTDPNAQLEELATRVEAQGFRPYVIPVGGSNALGALGYVESALEIAQQCEGAVNISSVVVASGSAGTHAGLAVGLEHLMPESELIGVTVSRSVADQLPKVVNLQQAIAKELELTASAEILLWDDYFAPGYGVPNDEGMEAVKLLARLEGILLDPVYTGKAMAGLIDGISQKRFKDEGPILFIHTGGAPALFAYHPHV,failed
4,MPLKRLGHRVLGLVLAAMLLYGGLAPPVRNFFALPWQQRLPAAAPISLPWELPPGLARQVEVKVNSGDWSRATTGDFPRWLQLQLKLFGFIPLKNITIQLVQPVDVSPGGQAIGVFLKTEGVQVVGQAAIVDERGNKVYLARQAGLETGDAIIAIDGQKVTSDQEVANLINAAGQANRQARITVKREGHLLTLNIHPRYCQETGRYRIGVYVRDSTAGVGTLTFYDQNKGVFGALGHVVTGSDGQTAMDISGGRIVAAAIQGIHQGYRGQPGEKLGVFLENGQFSGTIQKNTIVGIFGTITGKLPGNKEIPVALADTVHPGPAEILTVIEGEKVESFQVEIERVMPHQRASGKGLVLRITDPRLLAVTGGIIQGMSGSPIIQDGQLAGAVTHVFINDPTRGYGVLAEWMLQETELVPKDKARGATVETPGSFLFVVFCVG,failed
5,MPLPPDITFDSLALIKMHSQNMKRILEVTLAKFTVNLSIVTVYRYLTARAYLKKNIEAEFEILKDIYNIVPLLDDIAIKAAQIEANLIKKEITLDMEDIITATTAIYTNSLLVTDDPKRYEPIRRFGLDTMPLDKFIKEVELMVEKELI,not failed
6,MPLRCTKPLGATPATPTAPPTGRKGHQVAINGFITWILVTMSLVVYFLWAFIPTSFLDMVLASYYPDKYWAVAIPAILVMTMVYYLTVHFLLMLYRTDPLTDGFCVAQTNGAVRHESIENLVDVEDGVPPITDIPVSVASRLLFQPWN,failed
7,MPLVNSHIVEECLPFTSLRLDPEDINLSMGAGYVPDAEIQAISDALETEIAGICTPRFLYALFDAEPAGTCEVGVNGISLKTGSVITPYLKDAAGYVLFVATAGYEFEAFQHRIGSQGDILREFLLDAYGSAIAEAVVREVCRKVESRMFPLGYGVSHPYSPGYCGWHVTQQQLLFSCLPEFPCGVRLSDSSLMSPIKSVSGIIAYGPCIVKRKYGCELCGKADCYKNRNKLNRLEHHHHHH,not failed
8,MPLVSMKEMLNKALEGKYAVGQFNMNNLEWTQAILAAAEEEKSPVILGVSEGAARHMTGFKTVVAMVKALIEEMNITVPVAIHLDHGSSFEKCKEAIDAGFTSVMIDASHHPFEENVETTKKVVEYAHARNVSVEAELGTVGGQEDDVIAEGVIYADPAECKHLVEATGIDCLAPALGSVHGPYKGEPNLGFAEMEQVRDFTGVPLVLHGGTGIPTADIEKAISLGTSKINVNTENQIEFTKAVREVLNKDQEVYDPRKFIGPGRDAIKATVIGKIREFGSNGKA,not failed
9,MPMMNLIYLHGFRSSSLSIKGQQLKHYCQAFPYIQVHLPDLNLPPHEVIKKIENMIQSMDQVALIGSSLGGFYATQLVAKYQIPAVLINPAMRPWQLFRQLFSDQTLPYTVCETWTLDEQQLTEMEKIAVPVVQAADKILVLLQQGDEVLDYREAERYYSQPAHPSLIFTDAHGNHAMEDFENKLPLILAFL,failed
10,MPNDTHAQTGASGPTTLFTNANVLTVDAEFSTAQAIAIRGNRILAVGSDAEVRAAAGDDATVVDLEGKTVLPGFIDAHAHAVSGSVVDAIMDYVGMARFTTVDEVLNHIATRAAKTPAGDWLVFRNFDPAVQEGADALTFAELDPISTDHPIFILNASGHLAYANSRAFEVSGLTNDVPNPPGGEFVRDADGNLTGTIKNNVAFLQIAENYPAMKQVNPVEGLLGLLGKWSQQGLTTVSELSLGALAQSPADVQVMAAAAQSGRMTARLRAYPFYTLGTETWDNAGVKQGDGNALARVAGYKLVADGSNQGFTGLQREPYLNREDRGLAYMEPDELTTTALERAGKGWHLAIHGNGDAAIDNILDTCQALADAGIDMARVRPRIEHCSILHDEQIARMKALGVSASFLIGHVHYWGVAMRDQVFGLEKAQLLDRCKSVEEAGVGFTLHSDFMVTDPNPLHMIEMAVTRRTWKEPDYVLAPQERISVDSAIRAMTSEAAWQLFSDHEIGSLEPGKLADMVILDQDPRKVAPDEIKAIKVLETWMDGQRVFAA,failed
11,MPNHDYRELAAVFAGGALGALARAALSALAIPDPARWPWPTFTVNVVGAFLVGYFTTRLLERLPLSSYRRPLLGTGLCGGLTTFSTMQVETISMIEHGHWGLAAAYSVVSITLGLLAVHLATVLVRRVRIRR,failed
12,MPNILYKIDNQYPYFTKNEKKIAQFILNYPHKVVNMTSQEIANQLETSSTSIIRLSKKVTPGGFNELKTRLSKFLPKEVTQYNVELVDNESTISLKNKLHSRSKAAL,not failed
13,MPNSRLEGELPGGGVVTFDTDLPIAAHADEIADLIKHHQVVVVAGETGSGKTTQLPKICLALGRRQIAHTQPRRIAARSVAERVAEEMGVELGEQVGYQVRFTRRASSDTALTVMTDGVLLAEISHDRDLCAHDTIIIDEAHERSLNIDFLLGYLKQLLPRRPDLKVIITSATIDTARFSAHFDDAPVIEVSGRTYPVEVRYRPLDPSEQIRPDDEDDIDDEDELLHRPSAPSLTSPDDEVVDQVTGICRAVQELCREESGDILVFLAGEQEIRETAEALADLNLSNTEVLPLFARLSAAEQHRVFTPHTGRRIVLATNVAETSLTVPGIRYVIDPGTARISRYSVRTKVQRLPIEPVSQASANQRAGRCGRVAPGICIRLYSQTSFESRPEFTEPEILRTNLAAVILQMAQARLGAITDFPFVEAPDRSRINDGIRLLDELGALKPGHRDASRLTKIGHQLARVPLDPRLGRMLLEGARQGSLAEVLVIVAALSIRDVRERPADKREEADAFHRRFATEANLLQTLQAADNTDNNQVGDWSQVRRQHIHQEAANTAKPGPPARHTPHTRGKISPRPQAGGIDEGGDIMAIHRLWRYLRHQRRQMGSSAFRRMCRAEYINYLRVREWDDLHGQLRQIAKELHLEVNRTSAPTDRVLVALLSGLLSHIGLVQVRQPAKRHGQRPGPQEYLGARGTKFAINPGSLLARKSPELVVAVELVETSRLWARTVAAVQPEWVEEVAGPLIRRSWAVPHWAASTASVVATERGTLFGVPLWADRRVTYGRIDPVASRQIFIRSALVERNWRSDHGFLKHNDRVRDEAADLEERSRQRGLVADDDAIFAFYDRRIPDGIVSGSHFDAWWRRVQDRHQLDLSIDDLVDSGSVDADAFPDHWKVGNLELPVRYVFEPGSGHDGVTVTIPLALLNQVPTAPFSWQVPGLRTELATELIRALPKRIRTQLVPAPDRARAALTWLEDHDADRHAPFTNELGRALRTLTGVIINPDDWNIAAIPAHLRIGFDITDAEGRPVGKKSKKNGKDKLKGSQPAPIARSEDLDALQTDLAPKVSQSLTKAAGQPQIHGAKEWTFDPIPKRVDLSRKGPDAVGYPCLVDEGDSVGTTVLDTPRAQRTSHASGVVKLLVLNLPDPTKWVVTHMDNATKLALATSPYPSVPALLADARHKAVASVAQEKAGDLSGIRDKKTFDDLALVVRQDQADRMARVVRTAGRILSRVVAARQALATVSDPAIHADIVAQIDDLVFENFISATPDPWYDDMPRWIQGVSVRIESLMTNPSRDPRQMAELEPLLADYDALCEEQPAGKLPAEVEEIGFMLEELRVQYFAQKLGTRVSVSPKRIRMAIAKLS,failed
14,MPPELNWQEIDTVLLDMDGTLLDLEFDSHFWLKQVPETLSQRRGISLEQAHKIIHDEYLAVQHTLNWYCFDYWSERLDLDIYAMTTQAGNRVRLRQDTQPFLASLRERGLQTILLTNAHPHSLAVKIEHTALDQHLDLLLSTHTFGYPKEDQRLWQAVTQHTGLNPARTLFVDDSEKILDAARTFGIRYCLGIENPDSSCADKAFHSHPAINDYRKLLPALELRK,failed
15,MPPIIKRRVMRKIIIASQNPAKVNAVRSAFSTVFPDQEWEFIGVSVPSEVADQPMSDEETKQGALNRVRNAKQRHPGAEYYVGLEAGIEENKTFAWMIVESDQQRGESRSACLMLPPLVLERLRQAKELGDVMDEVFGTENIKQKGGAIGLLTRHHLTRSTVYHQALILALIPFINPEHYPSA,not failed
16,MPPQPDAAPPPLPPELAPLLPTDPVTIGPFRVIGRLGSGGMGAVYGALDAEHRCVAVKVIHAEHVRRPEYRELFAREAELVSRIDAECTPRFLGADPNAPEPWLATEFVPGRTLQQHVREFGPLDEAALRAFAAGTAEALAAIHAAGVVHLDVKPGNIMLAPDGPKVLDFGIARAIGDTTDKNVYGTPGWAAPERLDRQPGTPAADMFAWGGLIVFAATGRSPFGTGTSAELLERVRAGDCDLTGVPEELMELVARALSTDPEARPTAVEAFHTVLALDTVAADAIEEPGEDAAAIHRKRLRALLHRVWTGFDAAGHRPELWMALGTAAGGVGVAAGGAAALATQGTAGGGAAAGSGKLVGTASAAGGGASWGAGAGTLTKSATVTAAGTGLSGKAMLTVAAGATAAAVAGGWLVGRAVTDQPLLPFTDPEPSATAALAPSPEEDEKEGQEVRFRNLTLWFPEDWTVHVIEDIEFVGFGPDHEGREIVDDWIAAHPPGNPGCAEVDWNHWEWPAALVECPHIRILGPGGITYGGAVYEPITEEPDAGLFAPSQNPLPCIPGIDAYEADPASFPGQSPLVEELAPVGDRSALYREYLTPCGNPDGRDPELLYYTQRSWFLPESQILIVDEYGIEDIDAILADGEFASRSEED,failed
17,MPQIQSSHSNHFDFTIDTADRTKLLMSYLVVPTTANFNNVMHGGELLNLLDKVAYVCSTRYCAKGTVTLSVDGVTFKYPIPVGNLLTFLASINYVGNTSCEVGIKVLSEDIKTREITHTNSCYFTMVAVENGKPTPMPKYEPKTEVEIRRYEGALKRKEMRTRGYLKSGKHEGV,failed
18,MPQIYFSAAERRPKFVMKTGLSATEKNEVIKAAYRQIFERDITRAYSLSISDLESKVKNGDISMKEFVRRLAKSPLYQKQFYQPFINSRVIELAFRHILGRGPSSREEVQKYFSIISNGGLPALVDALVDSAEYSDYFGEETVPYLRGLEHHHHHH,failed
